# Biological target: Fyn (UniProt P06241)
# Assay: phosphorylation enrichment, bacterial display (enrichment ratio); higher = better substrate or ligand; peptides without Tyr show the background
# 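For SH2 binding enrichment of the phosphorylated peptide, bacterial display in this document: peptide library displayed on the E. coli surface as eCPX fusions, selected cells deep-sequenced, score is each peptide's frequency after selection divided by its frequency in the input.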
# 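For phosphorylation enrichment, bacterial display in this document: 11-residue human phosphosite peptides and single-mutation variants displayed on the E. coli surface, counted by deep sequencing, each peptide's frequency after selection divided by its frequency in the unselected input library; frequency after pTyr selection over input frequency; kinase dosed for 20-30% of maximal phosphorylation in three min.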
# Chain of Fyn (P06241 whole entry, looked up): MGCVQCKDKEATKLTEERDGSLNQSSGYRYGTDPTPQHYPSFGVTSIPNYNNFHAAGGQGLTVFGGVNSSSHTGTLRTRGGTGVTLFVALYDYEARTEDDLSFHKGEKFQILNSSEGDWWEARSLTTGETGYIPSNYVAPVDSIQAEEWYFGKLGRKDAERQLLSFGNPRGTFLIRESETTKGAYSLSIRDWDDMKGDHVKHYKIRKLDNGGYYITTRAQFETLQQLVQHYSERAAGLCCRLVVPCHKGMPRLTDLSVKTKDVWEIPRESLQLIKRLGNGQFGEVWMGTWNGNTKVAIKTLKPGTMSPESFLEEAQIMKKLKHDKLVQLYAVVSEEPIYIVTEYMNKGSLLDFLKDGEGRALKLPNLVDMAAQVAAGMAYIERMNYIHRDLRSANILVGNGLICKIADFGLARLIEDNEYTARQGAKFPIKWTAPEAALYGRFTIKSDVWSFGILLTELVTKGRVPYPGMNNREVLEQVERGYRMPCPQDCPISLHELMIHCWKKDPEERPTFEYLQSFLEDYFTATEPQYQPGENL
row,Sequence,phosphorylation enrichment
1,RFLRGYRQDAF [HLA-A_Y137_YF],0.489
2,CVRTIYTIDGS [DCLK2_Y124_G119C],1.32
3,LKKLEYLNLPL [LRRC6_Y70_A74P],0.364
4,AHPGEYGAEAL [HBA1_Y25_A22P],0.488
5,TESNNYIYKTL [FAM83B_Y637],1.31
6,LGPSDYFGEIV [PRKAR1A_Y323_A328V],0.655
7,EVEPTYVVLFD [ERCC4_Y577_R576T_YF],6.46
8,EDKFMYSEFPQ [PTEN_Y240_F241S],1.25
9,GNEEAYGRSHI [FAM171B_Y522],0.425
10,RRGTGYTLSLP [MAGEC3_Y152],0.73
11,WIPIQDPIISE [NOG_Y222_Y222D],0.578
12,TGYRPYVCPFD [YY1_Y383_D380Y],0.583
13,INITIYGKTFC [EFHC1_Y177_R182C],0.532
14,WCSNDHLGMSR [ALAS2_Y199_Y199H],0.434
15,FTYDPYSEEEP [IL2RB_Y387_D391E],1.14
16,IRTDAYVWAMT [RPE65_Y89_R91W],0.446

# Biological target: Fes (UniProt P07332)
# Sequence (P07332 whole entry, looked up): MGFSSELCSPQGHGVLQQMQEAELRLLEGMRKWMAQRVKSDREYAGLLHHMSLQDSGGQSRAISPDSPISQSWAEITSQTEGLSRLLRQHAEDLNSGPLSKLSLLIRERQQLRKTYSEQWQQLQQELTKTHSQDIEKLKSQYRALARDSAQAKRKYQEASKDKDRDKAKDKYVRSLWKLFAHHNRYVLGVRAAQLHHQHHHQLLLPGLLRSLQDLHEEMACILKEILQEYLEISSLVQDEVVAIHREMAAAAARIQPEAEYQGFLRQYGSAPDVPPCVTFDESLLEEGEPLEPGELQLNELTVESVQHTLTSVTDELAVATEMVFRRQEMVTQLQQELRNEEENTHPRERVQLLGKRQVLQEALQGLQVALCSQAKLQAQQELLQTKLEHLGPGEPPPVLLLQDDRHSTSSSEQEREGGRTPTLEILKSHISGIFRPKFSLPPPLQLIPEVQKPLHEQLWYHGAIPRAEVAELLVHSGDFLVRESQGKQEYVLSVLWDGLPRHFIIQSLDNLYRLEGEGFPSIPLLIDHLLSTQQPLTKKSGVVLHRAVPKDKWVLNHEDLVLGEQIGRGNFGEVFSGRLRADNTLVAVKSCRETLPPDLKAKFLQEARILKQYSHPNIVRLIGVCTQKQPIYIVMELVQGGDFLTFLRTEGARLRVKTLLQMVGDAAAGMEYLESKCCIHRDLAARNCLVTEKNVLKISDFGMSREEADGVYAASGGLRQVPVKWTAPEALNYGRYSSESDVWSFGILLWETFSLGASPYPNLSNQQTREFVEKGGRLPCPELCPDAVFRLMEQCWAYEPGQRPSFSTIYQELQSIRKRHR
# Assay: as above
row,Sequence,phosphorylation enrichment
1,RFLRGYRQDAF [HLA-A_Y137_YF],1.01
2,CVRTIYTIDGS [DCLK2_Y124_G119C],1.06
3,LKKLEYLNLPL [LRRC6_Y70_A74P],0.741
4,AHPGEYGAEAL [HBA1_Y25_A22P],0.768
5,TESNNYIYKTL [FAM83B_Y637],0.696
6,LGPSDYFGEIV [PRKAR1A_Y323_A328V],0.913
7,EVEPTYVVLFD [ERCC4_Y577_R576T_YF],1.21
8,EDKFMYSEFPQ [PTEN_Y240_F241S],1.21
9,GNEEAYGRSHI [FAM171B_Y522],0.823
10,RRGTGYTLSLP [MAGEC3_Y152],0.812
11,WIPIQDPIISE [NOG_Y222_Y222D],1.24
12,TGYRPYVCPFD [YY1_Y383_D380Y],1.33
13,INITIYGKTFC [EFHC1_Y177_R182C],1.48
14,WCSNDHLGMSR [ALAS2_Y199_Y199H],0.671
15,FTYDPYSEEEP [IL2RB_Y387_D391E],1.25
16,IRTDAYVWAMT [RPE65_Y89_R91W],1.11

# System: c-Abl (mouse)
# Assay: as above
row,Sequence,phosphorylation enrichment
1,RFLRGYRQDAF [HLA-A_Y137_YF],0.708
2,CVRTIYTIDGS [DCLK2_Y124_G119C],0.799
3,LKKLEYLNLPL [LRRC6_Y70_A74P],0.622
4,AHPGEYGAEAL [HBA1_Y25_A22P],0.634
5,TESNNYIYKTL [FAM83B_Y637],0.559
6,LGPSDYFGEIV [PRKAR1A_Y323_A328V],0.746
7,EVEPTYVVLFD [ERCC4_Y577_R576T_YF],1.22
8,EDKFMYSEFPQ [PTEN_Y240_F241S],1.03
9,GNEEAYGRSHI [FAM171B_Y522],0.706
10,RRGTGYTLSLP [MAGEC3_Y152],0.764
11,WIPIQDPIISE [NOG_Y222_Y222D],0.882
12,TGYRPYVCPFD [YY1_Y383_D380Y],0.808
13,INITIYGKTFC [EFHC1_Y177_R182C],0.982
14,WCSNDHLGMSR [ALAS2_Y199_Y199H],0.504
15,FTYDPYSEEEP [IL2RB_Y387_D391E],0.915
16,IRTDAYVWAMT [RPE65_Y89_R91W],0.724

# Biological target: FGFR3 (UniProt P22607)
# Sequence (P22607 whole entry, looked up): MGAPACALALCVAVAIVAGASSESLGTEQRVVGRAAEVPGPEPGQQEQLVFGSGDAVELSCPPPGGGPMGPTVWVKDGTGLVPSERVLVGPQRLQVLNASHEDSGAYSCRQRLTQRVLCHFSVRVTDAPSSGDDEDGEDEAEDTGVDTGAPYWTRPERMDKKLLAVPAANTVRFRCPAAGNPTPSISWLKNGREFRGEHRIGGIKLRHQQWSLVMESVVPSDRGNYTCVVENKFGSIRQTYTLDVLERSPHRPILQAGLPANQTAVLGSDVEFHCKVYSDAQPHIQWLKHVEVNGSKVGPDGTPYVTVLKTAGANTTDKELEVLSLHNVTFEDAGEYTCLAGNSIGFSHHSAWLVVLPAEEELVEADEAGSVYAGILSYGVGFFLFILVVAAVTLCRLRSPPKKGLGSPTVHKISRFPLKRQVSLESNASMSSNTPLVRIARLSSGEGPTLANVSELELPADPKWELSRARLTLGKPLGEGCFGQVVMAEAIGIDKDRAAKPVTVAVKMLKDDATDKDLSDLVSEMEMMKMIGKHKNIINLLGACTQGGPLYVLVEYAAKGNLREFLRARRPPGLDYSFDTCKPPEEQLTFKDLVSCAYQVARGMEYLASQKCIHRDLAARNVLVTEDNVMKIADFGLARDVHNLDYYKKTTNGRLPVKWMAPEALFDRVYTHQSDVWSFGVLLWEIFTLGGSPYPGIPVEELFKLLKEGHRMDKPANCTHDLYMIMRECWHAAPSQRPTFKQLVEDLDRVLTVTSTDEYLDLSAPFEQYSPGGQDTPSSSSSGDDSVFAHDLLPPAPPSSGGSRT
# Assay: as above
row,Sequence,phosphorylation enrichment
1,RFLRGYRQDAF [HLA-A_Y137_YF],0.677
2,CVRTIYTIDGS [DCLK2_Y124_G119C],1
3,LKKLEYLNLPL [LRRC6_Y70_A74P],1.12
4,AHPGEYGAEAL [HBA1_Y25_A22P],0.559
5,TESNNYIYKTL [FAM83B_Y637],0.64
6,LGPSDYFGEIV [PRKAR1A_Y323_A328V],1.42
7,EVEPTYVVLFD [ERCC4_Y577_R576T_YF],3.65
8,EDKFMYSEFPQ [PTEN_Y240_F241S],1.45
9,GNEEAYGRSHI [FAM171B_Y522],0.575
10,RRGTGYTLSLP [MAGEC3_Y152],0.643
11,WIPIQDPIISE [NOG_Y222_Y222D],0.717
12,TGYRPYVCPFD [YY1_Y383_D380Y],0.951
13,INITIYGKTFC [EFHC1_Y177_R182C],0.909
14,WCSNDHLGMSR [ALAS2_Y199_Y199H],0.576
15,FTYDPYSEEEP [IL2RB_Y387_D391E],0.818
16,IRTDAYVWAMT [RPE65_Y89_R91W],0.75

# Biological target: Jak2 (UniProt O60674)
# Sequence (O60674 whole entry, looked up): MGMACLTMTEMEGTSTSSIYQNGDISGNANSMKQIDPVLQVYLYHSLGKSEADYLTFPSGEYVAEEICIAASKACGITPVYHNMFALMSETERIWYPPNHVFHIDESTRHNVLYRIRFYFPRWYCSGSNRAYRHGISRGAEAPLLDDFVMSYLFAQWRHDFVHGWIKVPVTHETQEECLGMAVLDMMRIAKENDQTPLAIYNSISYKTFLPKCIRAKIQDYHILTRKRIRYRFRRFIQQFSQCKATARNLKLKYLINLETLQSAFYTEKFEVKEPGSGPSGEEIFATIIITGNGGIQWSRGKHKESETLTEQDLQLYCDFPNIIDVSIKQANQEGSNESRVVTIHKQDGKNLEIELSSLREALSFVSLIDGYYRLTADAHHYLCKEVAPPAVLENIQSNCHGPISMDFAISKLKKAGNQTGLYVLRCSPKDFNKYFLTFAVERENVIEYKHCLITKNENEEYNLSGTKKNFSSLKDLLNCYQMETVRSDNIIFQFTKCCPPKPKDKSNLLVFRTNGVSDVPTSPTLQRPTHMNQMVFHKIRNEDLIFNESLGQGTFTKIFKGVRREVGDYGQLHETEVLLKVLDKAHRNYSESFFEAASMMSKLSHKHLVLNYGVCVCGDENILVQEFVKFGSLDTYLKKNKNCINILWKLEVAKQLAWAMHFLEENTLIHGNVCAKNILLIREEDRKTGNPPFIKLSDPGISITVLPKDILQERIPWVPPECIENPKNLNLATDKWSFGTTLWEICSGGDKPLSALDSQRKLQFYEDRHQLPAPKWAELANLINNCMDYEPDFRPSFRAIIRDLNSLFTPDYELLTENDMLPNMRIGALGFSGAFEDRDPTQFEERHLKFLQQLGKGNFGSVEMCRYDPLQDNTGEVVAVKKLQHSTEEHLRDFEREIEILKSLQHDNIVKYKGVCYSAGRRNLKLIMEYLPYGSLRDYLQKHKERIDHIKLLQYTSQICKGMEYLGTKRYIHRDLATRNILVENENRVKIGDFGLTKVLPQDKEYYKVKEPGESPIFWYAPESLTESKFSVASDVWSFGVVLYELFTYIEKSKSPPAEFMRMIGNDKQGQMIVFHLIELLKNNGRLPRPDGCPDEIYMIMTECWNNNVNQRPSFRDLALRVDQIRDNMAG
# Assay: as above
row,Sequence,phosphorylation enrichment
1,RFLRGYRQDAF [HLA-A_Y137_YF],0.498
2,CVRTIYTIDGS [DCLK2_Y124_G119C],0.807
3,LKKLEYLNLPL [LRRC6_Y70_A74P],0.694
4,AHPGEYGAEAL [HBA1_Y25_A22P],0.563
5,TESNNYIYKTL [FAM83B_Y637],0.63
6,LGPSDYFGEIV [PRKAR1A_Y323_A328V],1.06
7,EVEPTYVVLFD [ERCC4_Y577_R576T_YF],1.26
8,EDKFMYSEFPQ [PTEN_Y240_F241S],1.14
9,GNEEAYGRSHI [FAM171B_Y522],0.905
10,RRGTGYTLSLP [MAGEC3_Y152],0.477
11,WIPIQDPIISE [NOG_Y222_Y222D],0.965
12,TGYRPYVCPFD [YY1_Y383_D380Y],1.04
13,INITIYGKTFC [EFHC1_Y177_R182C],1.38
14,WCSNDHLGMSR [ALAS2_Y199_Y199H],0.537
15,FTYDPYSEEEP [IL2RB_Y387_D391E],1.27
16,IRTDAYVWAMT [RPE65_Y89_R91W],0.904

# Biological target: c-Src SH2
# Assay: SH2 binding enrichment of the phosphorylated peptide, bacterial display (enrichment ratio); higher = better substrate or ligand; peptides without Tyr show the background
row,SH2 binding enrichment,Sequence
1,0.69,LKKLEYLNLPL [LRRC6_Y70_A74P]
2,0.654,LGPSDYFGEIV [PRKAR1A_Y323_A328V]
3,0.542,EDKFMYSEFPQ [PTEN_Y240_F241S]
4,0.358,RRGTGYTLSLP [MAGEC3_Y152]
5,0.488,WIPIQDPIISE [NOG_Y222_Y222D]
6,0.611,TGYRPYVCPFD [YY1_Y383_D380Y]
7,0.62,IRTDAYVWAMT [RPE65_Y89_R91W]

# Second part, the sequence before the results:
row,Sequence,SH2 binding enrichment
1,RFLRGYRQDAF [HLA-A_Y137_YF],0.559
2,CVRTIYTIDGS [DCLK2_Y124_G119C],0.529
3,AHPGEYGAEAL [HBA1_Y25_A22P],0.508
4,TESNNYIYKTL [FAM83B_Y637],0.523
5,EVEPTYVVLFD [ERCC4_Y577_R576T_YF],0.51
6,GNEEAYGRSHI [FAM171B_Y522],0.444
7,INITIYGKTFC [EFHC1_Y177_R182C],0.538
8,WCSNDHLGMSR [ALAS2_Y199_Y199H],0.684
9,FTYDPYSEEEP [IL2RB_Y387_D391E],0.817

# Biological target: SHP2-C SH2
# Assay: as above
row,SH2 binding enrichment,Sequence
1,1.4,LKKLEYLNLPL [LRRC6_Y70_A74P]
2,0.738,LGPSDYFGEIV [PRKAR1A_Y323_A328V]
3,0.739,EDKFMYSEFPQ [PTEN_Y240_F241S]
4,0.556,RRGTGYTLSLP [MAGEC3_Y152]
5,0.748,WIPIQDPIISE [NOG_Y222_Y222D]
6,0.552,TGYRPYVCPFD [YY1_Y383_D380Y]
7,0.698,IRTDAYVWAMT [RPE65_Y89_R91W]

# Further lines, the sequence ahead of its results:
row,Sequence,SH2 binding enrichment
1,RFLRGYRQDAF [HLA-A_Y137_YF],0.888
2,CVRTIYTIDGS [DCLK2_Y124_G119C],0.432
3,AHPGEYGAEAL [HBA1_Y25_A22P],0.707
4,TESNNYIYKTL [FAM83B_Y637],1.65
5,EVEPTYVVLFD [ERCC4_Y577_R576T_YF],0.521
6,GNEEAYGRSHI [FAM171B_Y522],0.801
7,INITIYGKTFC [EFHC1_Y177_R182C],0.737
8,WCSNDHLGMSR [ALAS2_Y199_Y199H],0.811
9,FTYDPYSEEEP [IL2RB_Y387_D391E],0.699

# Biological target: Grb2 SH2 (UniProt P62993)
# Assay: as above
row,SH2 binding enrichment,Sequence
1,10.3,LKKLEYLNLPL [LRRC6_Y70_A74P]
2,1.03,LGPSDYFGEIV [PRKAR1A_Y323_A328V]
3,0.951,EDKFMYSEFPQ [PTEN_Y240_F241S]
4,0.686,RRGTGYTLSLP [MAGEC3_Y152]
5,0.729,WIPIQDPIISE [NOG_Y222_Y222D]
6,0.797,TGYRPYVCPFD [YY1_Y383_D380Y]
7,0.835,IRTDAYVWAMT [RPE65_Y89_R91W]

# Continued, sequence first:
row,Sequence,SH2 binding enrichment
1,RFLRGYRQDAF [HLA-A_Y137_YF],1
2,CVRTIYTIDGS [DCLK2_Y124_G119C],0.702
3,AHPGEYGAEAL [HBA1_Y25_A22P],0.728
4,TESNNYIYKTL [FAM83B_Y637],0.738
5,EVEPTYVVLFD [ERCC4_Y577_R576T_YF],0.749
6,GNEEAYGRSHI [FAM171B_Y522],0.796
7,INITIYGKTFC [EFHC1_Y177_R182C],0.881
8,WCSNDHLGMSR [ALAS2_Y199_Y199H],0.801
9,FTYDPYSEEEP [IL2RB_Y387_D391E],0.92

# — the supplement of paper PMC10065799, “High-throughput profiling of sequence recognition by tyrosine kinases and SH2 domains using bacterial peptide display” (eLife, 2023)
